Key:
Type in all cases: in vivo, human
[1] = Phase 1 dose-escalation study: toxicity and safety
Method: (§1) This is a Phase 1, multicenter, open-label, non-randomized, dose-escalation oncology study in which EC1169 was dosed three times weekly (TIW), on Weeks 1 and 2 of a 3-week schedule or once weekly dosing (QW) on Weeks 1 and 2 of a 3-week schedule to assess toxicity, safety and preliminary efficacy results in patients with metastatic, castration-resistant prostate cancer (mCRPC) who have progressed on abiraterone and/or enzalutamide, and have been previously treated with a taxane except in cases of contraindication (e.g. poor performance status, age or personal choice). Patients were also dosed with 99mTc-EC0652 and underwent a SPECT/CT scan (or SPECT scan if no SPECT/CT is available) to evaluate EC0652 as an imaging agent to identify PSMA expression.
Prior dose escalation methodology for both schedules was based the continuous reassessment method (CRM), in which 1 patient is assigned to 1 dose level. Subsequent patients were to be enrolled upon the first observation of DLT, at which time enrollment to that dose level would be expanded to a maximum of 6 patients. An alternative dose escalation methodology for both schedules was based upon the standard “3+3” approach, in which a minimum of 3 patients is enrolled to a given dose level. Following the first observation of a DLT, the dose level is then expanded to a maximum of 6 patients.
Patients received an injection of 0.1 mg of PSMA Imaging Agent IIa labeled with 20-25 mCi of technetium-^99m (PSMA Imaging Agent Ma). Patients were subjected to SPECT/CT imaging of the region(s) known to contain target lesion(s) approximately 3-4 hours after injection of PSMA Imaging Agent Ma (^99mTc-EC0652). For sites where SPECT/CT imaging is not available, SPECT imaging alone was carried out.
(§2) II. PSMA-Tubulysin Compound I Administration: PSMA ligand-tubulysin compound I was administered at least 4 days after PSMA Imaging Agent Ma was administered, as an intravenous bolus injection, TIW on Weeks 1 and 2 (i.e., on Days 1, 3, 5, 8, 10, 12 of a 3-week cycle) or once weekly on Weeks 1 and 2 of a 3-week schedule.
DLTs will be based on events occurring in Part A during the first cycle of therapy and the adverse events must be drug related (i.e. definitely, probably or possibly): • ≧Grade 4 hematological toxicity. • Grade 3 neutropenia with fever>38.5° C. and/or infection requiring antibiotic or antifungal treatment. • Grade 3 neutropenia persisting for >5 days. • Grade 3 thrombocytopenia with clinically significant hemorrhage requiring platelet transfusion. • ≧Grade 3 non-hematological toxicity. Grade 3 laboratory abnormalities (e.g., K or Mg) that persist for less than 48 hours are not considered DLTs. • Grade 3 nausea, vomiting lasting more than 72 hours. • A delay of >2 weeks in the scheduled administration of Compound I due to drug-related toxicity.
• Schedule #1: TIW Dosing Schedule: Inability to administer at least 4 of the 6 scheduled doses of PSMA ligand-tubulysin compound I in a cycle due to drug-related toxicity. • Schedule #2: Once Weekly Dosing Schedule: Inability to administer both scheduled doses of PSMA ligand-tubulysin compound I in a cycle due to drug-related toxicity.
PSMA imaging conjugate IIIa and PSMA ligand-tubulysin compound I was administered via IV bolus injection.

[2] = system: metastatic, castration-resistant prostate cancer (mCRPC); test: Phase 1 dose-escalation study: preliminary efficacy; settings: 21 mCRPC patients
Description: In one aspect, a clinical benefit of the patient to treatment with PSMA ligand-tubulysin compound I can be characterized utilizing Response Evaluation Criteria in Solid Tumors (RECIST) criteria. Illustratively, the criteria have been adapted from the original WHO Handbook (3), taking into account the measurement of the longest diameter for all target lesions: complete response, (CR)—the disappearance of all target lesions; partial response (PR)—at least a 30% decrease in the sum of the longest diameter of target lesions, taking as reference the baseline sum longest diameter; stable disease (SD)—neither sufficient shrinkage to qualify for partial response nor sufficient increase to qualify for progressive disease, taking as reference the smallest sum longest diameter since the treatment started; progressive disease (PD)—at least a 20% increase in the sum of the longest diameter of target lesions, taking as reference the smallest sum longest diameter recorded since the treatment started or the appearance of one or more new lesions. In another aspect overall disease response rate (ORR) is a clinical benefit and is calculated as the percent of patients who achieve a best response of CR or PR. Overall disease control rate (DCR) can be another clinical benefit and is calculated as the percent of patients who achieve a best response of CR, PR, or SD. […]

[3] = Phase 1 dose-escalation study: pharmacokinetics; settings: mCRPC patients, IV bolus
Method: as §1, §2

[4] = 21 mCRPC patients, both schedules

CCCC(=O)OCN(C(=O)[C@@H](NC(=O)[C@H]1CCCCN1C)C(C)CC)[C@H](C[C@@H](OC(C)=O)c1nc(C(=O)N[C@@H](Cc2ccc(O)cc2)C[C@H](C)C(=O)NNC(=O)OCCSSC[C@H](NC(=O)[C@H](CC(=O)O)NC(=O)[C@H](CC(=O)O)NC(=O)Cc2ccc(CNC(=O)NCCCC[C@H](NC(=O)N[C@@H](CCC(=O)O)C(=O)O)C(=O)O)cc2)C(=O)O)cs1)C(C)C (some centres unmarked) [EC1169]
DR Grade 3-4 toxicity or serious adverse events [1, 4]: no
on-study deaths [1, 4]: no
occurrences of dose limiting toxicity ([1]; 21 mCRPC patients, both schedules, cycle 1): no
patients with drug-related (DR) adverse events (AE's) ([1]; 21 patients evaluated for cycle 1 toxicity, both schedules, IV bolus): 9 of 21
drug-related adverse events occurring in >1 patient ([1]; Schedule #1 (TIW, Weeks 1 and 2 of 3-week cycle), 5 pts): No DRAE occurred in >1 Schedule #1 patient
drug-related adverse events reported in ≧2 patients ([1]; Schedule #2 (once weekly, Weeks 1 and 2 of 3-week cycle), 16 pts): Vomiting and fatigue were the only DRAE's
tolerability ([1]; mCRPC patients): well tolerated
patients with a 50% decrease in PSA [2]: No patient
patients with stable disease lasting more than 4 cycles [2]: 3 patients
AUC [3]: Dose proportionate increases
Cmax [3]: Dose proportionate increases

From US20180036364A1, “METHODS OF TREATING CANCER WITH A PSMA LIGAND-TUBULYSIN COMPOUND” (priority 2015, published 2018)
